Test results reported in paper PMC12132310.

B1: MTF2 (endogenous, hiPSCs), Q9Y483 1-593 (natural protein)
chain: MRDSTGAGNSLVHKRSPLRRNQKTPTSLTKLSLQDGHKAKKPACKFEEGQDVLARWSDGLFYLGTIKKINILKQSCFIIFEDSSKSWVLWKDIQTGATGSGEMVCTICQEEYSEAPNEMVICDKCGQGYHQLCHTPHIDSSVIDSDEKWLCRQCVFATTTKRGGALKKGPNAKALQVMKQTLPYSVADLEWDAGHKTNVQQCYCYCGGPGDWYLKMLQCCKCKQWFHEACVQCLQKPMLFGDRFYTFICSVCSSGPEYLKRLPLQWVDIAHLCLYNLSVIHKKKYFDSELELMTYINENWDRLHPGELADTPKSERYEHVLEALNDYKTMFMSGKEIKKKKHLFGLRIRVPPVPPNVAFKAEKEPEGTSHEFKIKGRKASKPISDSREVSNGIEKKGKKKSVGRPPGPYTRKMIQKTAEPLLDKESISENPTLDLPCSIGRTEGTAHSSNTSDVDFTGASSAKETTSSSISRHYGLSDSRKRTRTGRSWPAAIPHLRRRRGRLPRRALQTQNSEIVKDDEGKEDYQFDELNTEILNNLADQELQLNHLKNSITSYFGAAGRIACGEKYRVLARRVTLDGKVQYLVEWEGATAS
B2: EPOP, A6NHQ4 1-379 (natural protein)
chain: METLCPAPRLAVPASPRGSPCSPTPRKPCRGTQEFSPLCLRALAFCALAKPRASSLGPGPGELAARSPVLRGPQAPLRPGGWAPDGLKHLWAPTGRPGVPNTAAGEDADVAACPRRGEEEEGGGGFPHFGVRSCAPPGRCPAPPHPRESTTSFASAPPRPAPGLEPQRGPAASPPQEPSSRPPSPPAGLSTEPAGPGTAPRPFLPGQPAEVDGNPPPAAPEAPAASPSTASPAPAAPGDLRQEHFDRLIRRSKLWCYAKGFALDTPSLRRGPERPPAKGPARGAAKKRRLPAPPPRTAQPRRPAPTLPTTSTFSLLNCFPCPPALVVGEDGDLKPASSLRLQGDSKPPPAHPLWRWQMGGPAVPEPPGLKFWGINMDES
B3: JARID2 (endogenous, hiPSCs), Q92833 1-1246 (natural protein)
chain: MSKERPKRNIIQKKYDDSDGIPWSEERVVRKVLYLSLKEFKNSQKRQHAEGIAGSLKTVNGLLGNDQSKGLGPASEQSENEKDDASQVSSTSNDVSSSDFEEGPSRKRPRLQAQRKFAQSQPNSPSTTPVKIVEPLLPPPATQISDLSKRKPKTEDFLTFLCLRGSPALPNSMVYFGSSQDEEEVEEEDDETEDVKTATNNASSSCQSTPRKGKTHKHVHNGHVFNGSSRSTREKEPVQKHKSKEATPAKEKHSDHRADSRREQASANHPAAAPSTGSSAKGLAATHHHPPLHRSAQDLRKQVSKVNGVTRMSSLGAGVTSAKKMREVRPSPSKTVKYTATVTKGAVTYTKAKRELVKDTKPNHHKPSSAVNHTISGKTESSNAKTRKQVLSLGGASKSTGPAVNGLKVSGRLNPKSCTKEVGGRQLREGLQLREGLRNSKRRLEEAHQAEKPQSPPKKMKGAAGPAEGPGKKAPAERGLLNGHVKKEVPERSLERNRPKRATAGKSTPGRQAHGKADSASCENRSTSQPESVHKPQDSGKAEKGGGKAGWAAMDEIPVLRPSAKEFHDPLIYIESVRAQVEKFGMCRVIPPPDWRPECKLNDEMRFVTQIQHIHKLGRRWGPNVQRLACIKKHLKSQGITMDELPLIGGCELDLACFFRLINEMGGMQQVTDLKKWNKLADMLRIPRTAQDRLAKLQEAYCQYLLSYDSLSPEEHRRLEKEVLMEKEILEKRKGPLEGHTENDHHKFHPLPRFEPKNGLIHGVAPRNGFRSKLKEVGQAQLKTGRRRLFAQEKEVVKEEEEDKGVLNDFHKCIYKGRSVSLTTFYRTARNIMSMCFSKEPAPAEIEQEYWRLVEEKDCHVAVHCGKVDTNTHGSGFPVGKSEPFSRHGWNLTVLPNNTGSILRHLGAVPGVTIPWLNIGMVFSTSCWSRDQNHLPYIDYLHTGADCIWYCIPAEEENKLEDVVHTLLQANGTPGLQMLESNVMISPEVLCKEGIKVHRTVQQSGQFVVCFPGSFVSKVCCGYSVSETVHFATTQWTSMGFETAKEMKRRHIAKPFSMEKLLYQIAQAEAKKENGPTLSTISALLDELRDTELRQRRQLFEAGLHSSARYGSHDGSSTVADGKKKPRKWLQLETSERRCQICQHLCYLSMVVQENENVVFCLECALRHVEKQKSCRGLKLMYRYDEEQIISLVNQICGKVSGKNGSIENCLSKPTPKRGPRKRATVDVPPSRLSASSSSKSASSSS

Legend:
[1] = target: SUZ12-3XFLAG PRC2.1mut (loss-of-PRC2.1 mutant, (338–353)-to-GSGSGS) (human (edited endogenous locus in WTC-11 hiPSCs)), Q15022; assay: affinity purification with mass spectrometry; settings: remark: other sources report otherwise
[2] = target: SUZ12-3XFLAG PRC2.2mut (loss-of-PRC2.2 mutant, F99A, R103A, L105A, I106A) (human (edited endogenous locus in WTC-11 hiPSCs)), Q15022; assay: affinity purification with mass spectrometry; settings: remark: other sources report otherwise

Row | Binder | fold less enriched than with WT SUZ12 [1] [fold] | fold less enriched than with WT SUZ12 [2] [fold]
1 | B1 | 35 | 
2 | B2 | 48 | 
3 | B3 |  | 13
